Measured values published in the supplement of paper PMC10899765.

How the values were obtained:
Conditions in all cases: 20 nM; 72 h
MCF10A [1] = experiment: percent viability (nuclei count relative to siNT); higher = more viable cells
Method: (§1)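 After 72 h, cells were fixed and stained with Hoechst and anti-fibrillarin, and nucleoli per nucleus were counted with CellProfiler. Values are plate-adjusted percent effect for the one-nucleolus and 5+ nucleoli phenotypes, normalised to siNT (0%) and to the positive controls siNOL11 or siKIF11 (100%), as the mean of biological triplicates. Percent viability is the nuclei count relative to siNT.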

MCF10A [2] = experiment: 5+ nucleoli phenotype percent effect (relative to siNT 0% and siKIF11 100%); higher = more cells with five or more nucleoli
Method: as §1

MCF10A [3] = experiment: one-nucleolus phenotype percent effect (relative to siNT 0% and siNOL11 100%); higher = more cells with one nucleolus (ribosome biogenesis inhibition)
Method: as §1

Which results are given for UGCUGAGGUCCGGGCUGUGCC [hsa-miR-7160-5p]?
percent viability (MCF10A [1]): 16.8%; 5+ nucleoli phenotype percent effect (MCF10A [2]): -22.1%; one-nucleolus phenotype percent effect (MCF10A [3]): 47.5%

Which results are given for “ACCAGCCUGUGUCCACCUCCAG [hsa-miR-6849-3p]”?
percent viability (MCF10A [1]): 46%; 5+ nucleoli phenotype percent effect (MCF10A [2]): -31%; one-nucleolus phenotype percent effect (MCF10A [3]): 13.6%

Which results are given for UCUGGUCCUGGACAGGAGGC [hsa-miR-7152-3p]?
percent viability (MCF10A [1]): 41.9%; 5+ nucleoli phenotype percent effect (MCF10A [2]): 18.5%; one-nucleolus phenotype percent effect (MCF10A [3]): -12.8%

UCCACUCUCCUGGCCCCCAG [hsa-miR-6777-3p] was tested. Which percent viability (MCF10A [1]) did it give?
The percent viability was 51%.

And the “5+ nucleoli phenotype percent effect” value (MCF10A [2])?
Its value is 14.3%.

And the “one-nucleolus phenotype percent effect” value (MCF10A [3])?
Its value is -16.2%.

What does the source list for CACUGGCUCCUUUCUGGGUAGA [hsa-miR-892b]?
percent viability (MCF10A [1]): 25.4%; 5+ nucleoli phenotype percent effect (MCF10A [2]): -22.8%; one-nucleolus phenotype percent effect (MCF10A [3]): 27.6%

For CUUUUUGCGGUCUGGGCUUGC [hsa-miR-129-5p], which percent viability (MCF10A [1]) is on record?
Its percent viability is 39.8%.

And the “5+ nucleoli phenotype percent effect” value (MCF10A [2])?
Its value is -6.61%.

And the “one-nucleolus phenotype percent effect” value (MCF10A [3])?
The value was 8.91%.

What does the source list for “CAGGGAGAAGGUGGAAGUGCAGA [hsa-miR-6760-5p]”?
percent viability (MCF10A [1]): 24.8%; 5+ nucleoli phenotype percent effect (MCF10A [2]): 29.9%; one-nucleolus phenotype percent effect (MCF10A [3]): -0.928%

UGGCAGUGUAUUGUUAGCUGGU [hsa-miR-449a] was tested. Which percent viability (MCF10A [1]) did it give?
The percent viability was 14%.

What about the “5+ nucleoli phenotype percent effect” value (MCF10A [2]) of the same sequence?
The value was -16.3%.

What about the “one-nucleolus phenotype percent effect” value (MCF10A [3]) of the same sequence?
Its value is 36.9%.

What does the source list for “AGAAAGGUGGAGGGGUUGUCAGA [hsa-miR-6730-5p]”?
percent viability (MCF10A [1]): 24.7%; 5+ nucleoli phenotype percent effect (MCF10A [2]): -33.5%; one-nucleolus phenotype percent effect (MCF10A [3]): 47.3%

What does the source list for UGGAGUGUGACAAUGGUGUUUG [hsa-miR-122-5p]?
percent viability (MCF10A [1]): 52.7%; 5+ nucleoli phenotype percent effect (MCF10A [2]): 14.4%; one-nucleolus phenotype percent effect (MCF10A [3]): -11.4%

For “AGGAGGUGGUACUAGGGGCCAGC [hsa-miR-6851-5p]”, which percent viability (MCF10A [1]) is on record?
Its percent viability is 15.2%.

And the “5+ nucleoli phenotype percent effect” value (MCF10A [2])?
Its value is -20.3%.

What about the “one-nucleolus phenotype percent effect” value (MCF10A [3]) of the same sequence?
Its value is 31.8%.

With UGUAAACAUCCUUGACUGGAAG [hsa-miR-30e-5p] as the sequence, how does the percent viability (MCF10A [1]) read?
The percent viability was 61.8%.

And the “5+ nucleoli phenotype percent effect” value (MCF10A [2])?
Its value is 36.3%.

What about the “one-nucleolus phenotype percent effect” value (MCF10A [3]) of the same sequence?
The value was 0.878%.

Which percent viability (MCF10A [1]) does the source give for ACUGACAGGAGAGCAUUUUGA [hsa-miR-3660] here?
The percent viability was 55%.

What about the “5+ nucleoli phenotype percent effect” value (MCF10A [2]) of the same sequence?
Its value is 21.1%.

What about the “one-nucleolus phenotype percent effect” value (MCF10A [3]) of the same sequence?
The value was -1.95%.

What does the source list for CGUCCCACCCCCCACUCCUGU [hsa-miR-4433-5p]?
percent viability (MCF10A [1]): 40.9%; 5+ nucleoli phenotype percent effect (MCF10A [2]): 25.6%; one-nucleolus phenotype percent effect (MCF10A [3]): -1.75%

What does the source list for UGUCCUCUGUUCCUCAG [hsa-miR-6852-3p]?
percent viability (MCF10A [1]): 17.2%; 5+ nucleoli phenotype percent effect (MCF10A [2]): 9.01%; one-nucleolus phenotype percent effect (MCF10A [3]): 43.6%

For UCUGAGGUGGAACAGCAGC [hsa-miR-7162-3p], which percent viability (MCF10A [1]) is on record?
Its percent viability is 27.2%.

And the “5+ nucleoli phenotype percent effect” value (MCF10A [2])?
The value was -23%.

What about the “one-nucleolus phenotype percent effect” value (MCF10A [3]) of the same sequence?
The value was 19.5%.

How did the percent viability (MCF10A [1]) turn out when “CAAAAAUCUCAAUUACUUUUGC [hsa-miR-548c-3p]” was run?
Its percent viability is 84.4%.

What about the “5+ nucleoli phenotype percent effect” value (MCF10A [2]) of the same sequence?
The value was 42.3%.

And the “one-nucleolus phenotype percent effect” value (MCF10A [3])?
The value was -9.26%.

For UCCUCAUCACACUGCACCUUAG [hsa-miR-6072], which percent viability (MCF10A [1]) is on record?
The percent viability was 32.4%.

What about the “5+ nucleoli phenotype percent effect” value (MCF10A [2]) of the same sequence?
The value was -18.4%.

What about the “one-nucleolus phenotype percent effect” value (MCF10A [3]) of the same sequence?
The value was 13.4%.

Which percent viability (MCF10A [1]) does the source give for CUAUACAACUUACUACUUUCCC [hsa-miR-98-3p] here?
The percent viability was 59.1%.

And the “5+ nucleoli phenotype percent effect” value (MCF10A [2])?
Its value is 45.5%.

What about the “one-nucleolus phenotype percent effect” value (MCF10A [3]) of the same sequence?
The value was -31.6%.

What does the source list for UCUGCAAGUGUCAGAGGCGAGG [hsa-miR-2276]?
percent viability (MCF10A [1]): 160%; 5+ nucleoli phenotype percent effect (MCF10A [2]): 38.4%; one-nucleolus phenotype percent effect (MCF10A [3]): -15.8%

What does the source list for “UGCUCAGGUUGCACAGCUGGGA [hsa-miR-3934-3p]”?
percent viability (MCF10A [1]): 52.8%; 5+ nucleoli phenotype percent effect (MCF10A [2]): -20.7%; one-nucleolus phenotype percent effect (MCF10A [3]): 9.77%

Which results are given for “UGGGGUAAGGAUAGGAGGGUCA [hsa-miR-6881-5p]”?
percent viability (MCF10A [1]): 24.8%; 5+ nucleoli phenotype percent effect (MCF10A [2]): -3.46%; one-nucleolus phenotype percent effect (MCF10A [3]): 4.74%

Which percent viability (MCF10A [1]) does the source give for UGCACGGCACUGGGGACACGU [hsa-miR-3177-3p] here?
Its percent viability is 20.3%.

What about the “5+ nucleoli phenotype percent effect” value (MCF10A [2]) of the same sequence?
Its value is -18%.

And the “one-nucleolus phenotype percent effect” value (MCF10A [3])?
Its value is 33.1%.

What does the source list for GACAUUCAGACUACCUG [hsa-miR-4262]?
percent viability (MCF10A [1]): 86.4%; 5+ nucleoli phenotype percent effect (MCF10A [2]): -5.77%; one-nucleolus phenotype percent effect (MCF10A [3]): 6.49%

Which results are given for UGGGGCGGAGCUUCCGGAG [hsa-miR-3180]?
percent viability (MCF10A [1]): 25.6%; 5+ nucleoli phenotype percent effect (MCF10A [2]): -11.7%; one-nucleolus phenotype percent effect (MCF10A [3]): 10.4%

How did the percent viability (MCF10A [1]) turn out when “UGAUUGUCUUCAUAUCUAGAAC [hsa-miR-4782-3p]” was run?
The percent viability was 62%.

And the “5+ nucleoli phenotype percent effect” value (MCF10A [2])?
The value was -13.9%.

And the “one-nucleolus phenotype percent effect” value (MCF10A [3])?
The value was -0.93%.

GUGCUUCAUCGUAAUUAACCUUA [hsa-miR-3977] was tested. Which percent viability (MCF10A [1]) did it give?
The percent viability was 49%.

What about the “5+ nucleoli phenotype percent effect” value (MCF10A [2]) of the same sequence?
Its value is -18.9%.

What about the “one-nucleolus phenotype percent effect” value (MCF10A [3]) of the same sequence?
Its value is 2.65%.

What does the source list for GAGCCAGUUGGACAGGAGC [hsa-miR-575]?
percent viability (MCF10A [1]): 129%; 5+ nucleoli phenotype percent effect (MCF10A [2]): 3.98%; one-nucleolus phenotype percent effect (MCF10A [3]): -23.7%

Which results are given for AAAAUUUCUUUCACUACUUAG [hsa-miR-3606-3p]?
percent viability (MCF10A [1]): 54%; 5+ nucleoli phenotype percent effect (MCF10A [2]): 41.5%; one-nucleolus phenotype percent effect (MCF10A [3]): -25.7%

With UGACUUCUACCUCUUCCAAAG [hsa-miR-6505-3p] as the sequence, how does the percent viability (MCF10A [1]) read?
Its percent viability is 33.6%.

What about the “5+ nucleoli phenotype percent effect” value (MCF10A [2]) of the same sequence?
Its value is -48%.

What about the “one-nucleolus phenotype percent effect” value (MCF10A [3]) of the same sequence?
The value was 46.6%.
